Values belong to the binder of their own block, whether it stands above or below them.
Assays:
[1] = biological target: microtubules assembled from purified beta-R380C yeast tubulin (Tub1/Tub2-R380C) (yeast, UniProt P09733 1-447; P02557 1-457, R380C); experiment: single-molecule TIRF microscopy of kinesin-GFP on surface-attached microtubules
[2] = biological target: microtubules assembled from purified wildtype yeast tubulin (Tub1/Tub2 heterodimer) (yeast, UniProt P09733 1-447; P02557 1-457); experiment: as above

increase in binding frequency relative to wildtype microtubules [1]: 29%
plus-end dwell time relative to wildtype microtubules [1]: 2 fold
B1: full-length mouse Kif21a fused to GFP (natural protein, UniProt Q9QXL2 1-1672, looked up)
chain: MLGAADESSVRVAVRIRPQLAKEKIEGCHICTSVTPGEPQVFLGKDKAFTFDYVFDIDSQQEQIYTQCIEKLIEGCFEGYNATVFAYGQTGAGKTYTMGTGFDVNIMEEEQGIISRAVRHLFKSIDEKKTSAIKNGLPPPEFKVNAQFLELYNEEVLDLFDTTRDIDAKNKKSNIRIHEDSTGGIYTVGVTTRTVNTEPEMMQCLKLGALSRTTASTQMNVQSSRSHAIFTIHVCQTRVCPQTDAENATDNKLISESSPMNEFETLTAKFHFVDLAGSERLKRTGATGERAKEGISINCGLLALGNVISALGDKSKRATHVPYRDSKLTRLLQDSLGGNSQTIMIACVSPSDRDFMETLNTLKYANRARNIKNKVMVNQDRASQQINALRSEITRLQMELMEYKTGKRIIDEEGVESINDMFHENAMLQTENNNLRVRIKAMQETVDALRARITQLVSEQANQVLARAGEGNEEISNMIHSYIKEIEDLRAKLLESEAVNENLRKNLTRATARSPYFSASSAFSPTILSSDKETIEIIDLAKKDLEKLKRKEKKKKKRLQKLEESGREERSVAGKDDNADTDQEKKEEKGVSEKENNELDVEENQEVSDHEDEEEEEEDEEEEDDIEGEESSDESDSESDEKANYQADLANITCEIAIKQKLIDELENSQKRLQTLKKQYEEKLMMLQHKIRDTQLERDQVLQNLGSVESYSEEKAKKVKCEYEKKLHAMNKELQRLQTAQKEHARLLKNQSQYEKQLKKLQQDVMEMKKTKVRLMKQMKEEQEKARLTESRRNREIAQLKKDQRKRDHQLRLLEAQKRNQEVVLRRKTEEVTALRRQVRPMSDKVAGKVTRKLSSSESPAPDTGSSAASGEADTSRPGTQQKMRIPVARVQALPTPTTNGTRKKYQRKGFTGRVFTSKTARMKWQLLERRVTDIIMQKMTISNMEADMNRLLRQREELTKRREKLSKRREKIVKESGEGDKSVANIIEEMESLTANIDYINDSIADCQANIMQMEEAKEEGETLDVTAVINACTLTEARYLLDHFLSMGINKGLQAAQKEAQIKVLEGRLKQTEITSATQNQLLFHMLKEKAELNPELDALLGHALQDLDGAPPENEEDSSEEDGPLHSPGSEGSTLSSDLMKLCGEVKPKNKARRRTTTQMELLYADSSEVASDTSAGDASLSGPLAPVAEGQEIGMNTETSGTSARDKELLAPSGLPSKIGSISRQSSLSEKKVPEPSPVTRRKAYEKADKPKAKEHKHSDSGASETSLSPPSSPPSRPRNELNVFNRLTVPQGTPSVQQDKSDESDSSLSEVHRGIINPFPACKGVRASPLQCVHIAEGHTKAVLCVDSTDDLLFTGSKDRTCKVWNLVTGQEIMSLGVHPNNVVSVKYCNYTSLVFTVSTSYIKVWDIRESAKCIRTLTSSGQVTLGEACSASTSRTVAIPSGESQINQIALNPTGTFLYAASGNAVRMWDLKRFQSTGKLTGHLGPVMCLTVDQISNGQDLIITGSKDHYIKMFDVTEGALGTVSPTHNFEPPHYDGIEALAIQGDNLFSGSRDNGIKKWDLAQKGLLQQVPNAHKDWVCALGLVPGHPVLLSGCRGGILKLWNVDTFVPVGEMRGHDSPINAICVNSTHVFTAADDRTVRIWKAHNLQDGQLSDTGDLGEDIASN

increase in binding frequency relative to wildtype microtubules [1]: 31%
increase in plus-end dwell time relative to wildtype microtubules [1]: 45%
plus-end dwell time relative to wildtype microtubules, high salt [1]: ~2 fold
fold increase in binding relative to full-length Kif21a [2]: ~100 fold
B2: truncated mouse Kif21a-917 fused to GFP (domain or fragment, UniProt Q9QXL2 1-917, looked up)
chain: MLGAADESSVRVAVRIRPQLAKEKIEGCHICTSVTPGEPQVFLGKDKAFTFDYVFDIDSQQEQIYTQCIEKLIEGCFEGYNATVFAYGQTGAGKTYTMGTGFDVNIMEEEQGIISRAVRHLFKSIDEKKTSAIKNGLPPPEFKVNAQFLELYNEEVLDLFDTTRDIDAKNKKSNIRIHEDSTGGIYTVGVTTRTVNTEPEMMQCLKLGALSRTTASTQMNVQSSRSHAIFTIHVCQTRVCPQTDAENATDNKLISESSPMNEFETLTAKFHFVDLAGSERLKRTGATGERAKEGISINCGLLALGNVISALGDKSKRATHVPYRDSKLTRLLQDSLGGNSQTIMIACVSPSDRDFMETLNTLKYANRARNIKNKVMVNQDRASQQINALRSEITRLQMELMEYKTGKRIIDEEGVESINDMFHENAMLQTENNNLRVRIKAMQETVDALRARITQLVSEQANQVLARAGEGNEEISNMIHSYIKEIEDLRAKLLESEAVNENLRKNLTRATARSPYFSASSAFSPTILSSDKETIEIIDLAKKDLEKLKRKEKKKKKRLQKLEESGREERSVAGKDDNADTDQEKKEEKGVSEKENNELDVEENQEVSDHEDEEEEEEDEEEEDDIEGEESSDESDSESDEKANYQADLANITCEIAIKQKLIDELENSQKRLQTLKKQYEEKLMMLQHKIRDTQLERDQVLQNLGSVESYSEEKAKKVKCEYEKKLHAMNKELQRLQTAQKEHARLLKNQSQYEKQLKKLQQDVMEMKKTKVRLMKQMKEEQEKARLTESRRNREIAQLKKDQRKRDHQLRLLEAQKRNQEVVLRRKTEEVTALRRQVRPMSDKVAGKVTRKLSSSESPAPDTGSSAASGEADTSRPGTQQKMRIPVARVQALPTPTTNGTRKKYQRKGFTGRVFT

— article PMC10916880 (Molecular Biology of the Cell, 2024)
